Measured values: the RNAGym collection of RNA variant scans (doi:10.7554/elife.80360)

B1: HDV Ribozyme (parent)
chain: GGCCGGCAUGGUCCCAGCCUCCUCGCUGGCGCCGGCUGGGCAACAUUCCGAGGGGACCGUCCCCUCGGUAAUGGCGAAUGGGACCCA

Variants of: B1
Test: self-cleavage, relative activity (ratio to wild type); higher = more cleavage; co-transcriptional

Row | Variant | self-cleavage
1 | C4A G17C | 0.0386
2 | C4G A78U | 0.116
3 | C4G A78C | 0.0923
4 | C4G A70U | 0.35
5 | C4G A70C | 0.244
6 | C4A C14U | 0.554
7 | C4A C14A | 0.119
8 | C4A C61A | 0.219
9 | C4A C61G | 0.193
10 | C4A C61U | 0.267
11 | C4A A16G | 0.344
12 | C4A A16C | 0.0339
13 | C4U A45U | 0.458
14 | C4U A45C | 0.475
15 | C4U A45G | 0.862
16 | C4A G50C | 0.456
17 | C4A G50A | 0.172
18 | C3U G81A | 0.17
19 | C4A C22A | 0.0332
20 | C4A G68U | 0.453
21 | C4A U37C | 0.415
22 | C4A G82U | 0.089
23 | C4A G82A | 0.0272
24 | C4G G28C | 0.101

Row | Variant | self-cleavage
25 | C4A U23G | 0.0449
26 | C4G C24U | 0.193
27 | C4A A8C | 0
28 | C4A A8U | 0.0723
29 | C4A C66U | 0.361
30 | C3U U69G | 0.649
31 | C4A C24U | 0
32 | C4A A42G | 0.0875
33 | C4A G67U | 0.354
34 | C4G C15G | 0.308
35 | C3U U12C | 0.107
36 | C4A G38C | 0
37 | C4A U72C | 0.111
38 | C4A G29U | 0
39 | C4A G11U | 0
40 | C4G C32U | 0.086
41 | C4G C32G | 0
42 | C4G C32A | 0.0692
43 | C3U U72C | 0.471
44 | C3U U72G | 0.453
45 | C4G C7G | 0.0875
46 | C4G C7A | 0
47 | C4G G17U | 0
48 | C4G G34A | 0.161

Row | Variant | self-cleavage
49 | C4G U72C | 0.0426
50 | C4G C26U | 0.684
51 | C4G G35U | 0.0875
52 | C4G G81A | 0.0382
53 | C3U G74U | 0.241
54 | C3U G74C | 0.0712
55 | C4G A51G | 0.554
56 | C4G A71U | 0.156
57 | C4A C85A | 0.346
58 | C4A C85U | 0.381
59 | C4G C85G | 0.332
60 | C4G A45C | 0.0554
61 | C4G A16C | 0.0755
62 | C4A G28C | 0.0396
63 | C4G G39C | 0.0326
64 | C4G G39A | 0.0183
65 | C4G C75A | 0.0692
66 | C4G C75G | 0.122
67 | C4A C19G | 0.0339
68 | C4G A77U | 0.0354
69 | C4G A77C | 0
70 | C4A C26U | 0.415
71 | C4A C26A | 0.332
72 | C4G G50C | 0.237

Row | Variant | self-cleavage
73 | C4G G50A | 0.415
74 | C4G G76U | 0.469
75 | C4U A42U | 0.284
76 | C3U G39C | 0.0804
77 | C3U U65G | 0.682
78 | C3U G50U | 0.728
79 | C4G C22G | 0
80 | C3U G52C | 0.546
81 | C3U G82U | 0.332
82 | C4G G73A | 0.156
83 | C4G C18G | 0.0282
84 | C4G C18A | 0.0287
85 | C3U U47G | 0.594
86 | C3U U20G | 0.125
87 | C3U G53C | 0.688
88 | C3U G53U | 0.779
89 | C4G G67C | 0.374
90 | C4A G25A | 0.089
91 | C4A A78U | 0.0437
92 | C4A C64A | 0.157
93 | C4A C64G | 0.386
94 | C4G G38C | 0
95 | C3U U37A | 0.128
96 | C4A C7A | 0.0449

Row | Variant | self-cleavage
97 | C4A C15A | 0.198
98 | C4A G55U | 0.237
99 | C3U U27A | 0.701
100 | C4G C30G | 0
101 | C4A G81C | 0
102 | C4A G81U | 0.128
103 | C3U U60G | 0.591
104 | C3U U60A | 0.769
105 | C3U G67A | 0.822
106 | C3U G67U | 0.752
107 | C4G C49A | 0.346
108 | C4A C33U | 0.104
109 | C4G G52A | 0.47
110 | C4G G52C | 0.383
111 | C4G G52U | 0.215
112 | C4G G68U | 0.227
113 | C4G G68C | 0.475
114 | C4A G31C | 0.0739
115 | C4G C44A | 0.0346
116 | C4G U23C | 0.208
117 | C4G G55A | 0.305
118 | C4A G35C | 0.086
119 | C4A G35U | 0.0369
120 | C4A G74C | 0.0997

Row | Variant | self-cleavage
121 | C4A U65A | 0.594
122 | C4G U47G | 0.175
123 | C4A G73A | 0
124 | C4A G73C | 0.0426
125 | C4A G52A | 0.401
126 | C3U U9A | 0.904
127 | C3U G76A | 0.908
128 | C4G A56G | 0.249
129 | C4A C13G | 0.0692
130 | C4G A8U | 0.214
131 | C4G U65C | 0.18
132 | C4A C62G | 0
133 | C4A C62U | 0.248
134 | C4A C62A | 0.177
135 | C4G C19U | 0.0779
136 | C4U A43C | 0.578
137 | C4A C84U | 0.172
138 | C4G C64U | 0.214
139 | C4A U27G | 0.225
140 | C4G G53U | 0.424
141 | C3U U23G | 0.743
142 | C3U U23C | 0.776
143 | C3U U23A | 0.9
144 | C4G U69G | 0.317

Row | Variant | self-cleavage
145 | C4G U69C | 0.308
146 | C4A C30G | 0
147 | C4A C30U | 0.116
148 | C4A C44U | 0.0739
149 | C4A C44G | 0.0665
150 | C4G U46C | 0
151 | C4G U46G | 0
152 | C4G G59A | 0.198
153 | C4A U69C | 0.277
154 | C4A G5U | 0.122
155 | C4A G5C | 0.232
156 | C4U A51G | 0.467
157 | C4U A51U | 0.85
158 | C4G | 0.376
159 | C4U | 0.758
160 | C4A | 0.315
161 | C4A C86G | 0.405
162 | C4A A70U | 0.252
163 | C4A A70G | 0.189
164 | C4G G29A | 0
165 | C4G G29U | 0.0292
166 | C4A C63U | 0.344
167 | C4G A42U | 0.0875
